The results in this text go back to paper PMC9482650, “Quantitative fragmentomics allow affinity mapping of interactomes” (Nature Communications, 2022).

Targets include HTRA1, Q92743; DLG2_2, Q15700; TJP1_2, Q07157; DLG1_2, Q12959; MAGI2_5, Q86UL8; NOS1, P29475; DLG2_3, Q15700; MAST1, Q9Y2H9; PICK1, Q9NRD5; IL16_3, Q14005; PTPN3, P26045.
Assay in all cases: holdup assay
Design in all cases: key: below the threshold = too weak to quantify, mostly under pKd 3.1 to 4
Details in all cases: plain residues with an end cap or a label only (N-terminal biotin on a linker: ado-ado)

The target in another test is T1, MPDZ_10, O75970.
T1 sequence (O75970 1624-1722, limits assumed, looked up): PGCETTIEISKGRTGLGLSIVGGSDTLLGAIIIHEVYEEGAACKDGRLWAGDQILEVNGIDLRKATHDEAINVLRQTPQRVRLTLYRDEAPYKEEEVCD

Another test deals with T2, LIN7A, O14910.
T2 sequence (O14910 103-200, limits assumed, looked up): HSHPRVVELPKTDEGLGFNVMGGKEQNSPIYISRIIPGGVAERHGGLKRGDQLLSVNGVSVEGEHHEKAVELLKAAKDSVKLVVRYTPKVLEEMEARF

A further test has as its target T3, NHERF3_4, Q5T2W1.
T3 sequence (Q5T2W1 373-468, limits assumed, looked up): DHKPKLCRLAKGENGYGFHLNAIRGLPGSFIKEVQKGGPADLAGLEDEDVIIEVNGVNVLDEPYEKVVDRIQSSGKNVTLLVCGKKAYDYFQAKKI

A further test concerns the target T4, PDZRN3_1, Q9UPQ7.
T4 sequence (Q9UPQ7 244-349, limits assumed, looked up): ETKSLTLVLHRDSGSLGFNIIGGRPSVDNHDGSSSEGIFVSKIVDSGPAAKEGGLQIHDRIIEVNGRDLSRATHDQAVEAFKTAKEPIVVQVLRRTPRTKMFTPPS

For another test, the target named is T5, DFNB31_2, Q9P202.
T5 sequence (Q9P202 274-371, limits assumed, looked up): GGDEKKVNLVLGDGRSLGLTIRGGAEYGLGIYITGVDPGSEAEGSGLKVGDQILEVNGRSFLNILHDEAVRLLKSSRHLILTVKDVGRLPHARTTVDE

For the next test, the target named is T6, TX1BP3, O14907.
T6 sequence (O14907 10-122, limits assumed, looked up): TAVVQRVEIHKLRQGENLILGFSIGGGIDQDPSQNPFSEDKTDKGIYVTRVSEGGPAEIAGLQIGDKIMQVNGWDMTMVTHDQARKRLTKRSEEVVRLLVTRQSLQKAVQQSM

For the next test, the target named is T7, NHERF3_1, Q5T2W1.
T7 sequence (Q5T2W1 4-100, limits assumed, looked up): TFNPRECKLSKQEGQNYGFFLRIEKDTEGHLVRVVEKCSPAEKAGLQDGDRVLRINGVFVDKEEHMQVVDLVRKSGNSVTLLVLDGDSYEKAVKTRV

A further test concerns the target T8, DLG3_1, Q92796.
T8 sequence (Q92796 125-227, limits assumed, looked up): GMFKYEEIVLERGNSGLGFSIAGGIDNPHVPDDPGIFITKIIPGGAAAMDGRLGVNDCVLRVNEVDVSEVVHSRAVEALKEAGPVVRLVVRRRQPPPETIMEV

A further test addresses T9, MPDZ_5, O75970.
T9 sequence (O75970 695-796, limits assumed, looked up): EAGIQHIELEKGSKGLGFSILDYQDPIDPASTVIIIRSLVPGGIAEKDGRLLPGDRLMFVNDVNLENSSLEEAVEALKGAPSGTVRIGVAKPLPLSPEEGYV

A further test has as its target T10, ARHGAP21, Q5T5U3.
T10 sequence (Q5T5U3 45-169, limits assumed, looked up): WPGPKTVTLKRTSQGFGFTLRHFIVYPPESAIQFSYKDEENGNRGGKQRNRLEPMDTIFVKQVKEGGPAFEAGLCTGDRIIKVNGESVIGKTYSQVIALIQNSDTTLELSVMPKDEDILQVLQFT

In the next test the target is T11, LRRC7, Q96NW7.
T11 sequence (Q96NW7 1440-1537, limits assumed, looked up): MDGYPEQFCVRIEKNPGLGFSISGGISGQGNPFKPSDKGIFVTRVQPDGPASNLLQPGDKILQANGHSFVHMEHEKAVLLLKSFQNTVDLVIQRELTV

The target in another test is T12, APBA2_2, Q99767.
T12 sequence (Q99767 654-744, limits assumed, looked up): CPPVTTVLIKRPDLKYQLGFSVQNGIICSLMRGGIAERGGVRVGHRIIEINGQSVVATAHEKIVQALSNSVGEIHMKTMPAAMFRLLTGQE

Another test addresses T13, MPDZ_12, O75970.
T13 sequence (O75970 1857-1958, limits assumed, looked up): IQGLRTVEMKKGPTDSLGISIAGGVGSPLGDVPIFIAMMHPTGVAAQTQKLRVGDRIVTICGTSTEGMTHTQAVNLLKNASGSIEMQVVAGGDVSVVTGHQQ

NOS1, P29475, sequence (P29475 9-101): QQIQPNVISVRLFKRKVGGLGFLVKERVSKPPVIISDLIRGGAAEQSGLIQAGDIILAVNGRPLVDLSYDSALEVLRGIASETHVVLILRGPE
MAST1, Q9Y2H9, sequence (Q9Y2H9 962-1065): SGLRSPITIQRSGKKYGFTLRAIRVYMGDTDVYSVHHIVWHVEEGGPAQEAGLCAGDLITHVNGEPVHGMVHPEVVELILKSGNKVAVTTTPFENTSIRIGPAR
IL16_3, Q14005, sequence (Q14005 1107-1207): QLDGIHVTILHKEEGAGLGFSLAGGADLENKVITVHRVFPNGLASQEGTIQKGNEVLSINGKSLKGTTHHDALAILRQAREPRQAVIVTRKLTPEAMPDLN
PTPN3, P26045, sequence (P26045 505-587): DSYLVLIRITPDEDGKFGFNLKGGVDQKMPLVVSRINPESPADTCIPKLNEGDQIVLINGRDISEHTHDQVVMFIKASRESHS
HTRA1, Q92743, sequence (Q92743 360-477): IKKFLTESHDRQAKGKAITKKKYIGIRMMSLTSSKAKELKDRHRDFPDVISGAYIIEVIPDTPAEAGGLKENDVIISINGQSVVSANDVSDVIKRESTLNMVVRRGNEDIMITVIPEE
DLG1_2, Q12959, sequence (Q12959 314-412): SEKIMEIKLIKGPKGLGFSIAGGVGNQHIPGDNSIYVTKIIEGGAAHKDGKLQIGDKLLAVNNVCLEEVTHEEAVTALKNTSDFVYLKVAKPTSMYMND
TJP1_2, Q07157, sequence (Q07157 181-274): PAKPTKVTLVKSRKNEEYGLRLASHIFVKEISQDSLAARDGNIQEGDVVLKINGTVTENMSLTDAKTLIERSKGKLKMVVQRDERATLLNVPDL
MAGI2_5, Q86UL8, sequence (Q86UL8 915-1017): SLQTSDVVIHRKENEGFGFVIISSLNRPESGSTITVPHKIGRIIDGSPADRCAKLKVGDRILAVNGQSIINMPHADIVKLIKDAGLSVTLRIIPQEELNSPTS
PICK1, Q9NRD5, sequence (Q9NRD5 17-115): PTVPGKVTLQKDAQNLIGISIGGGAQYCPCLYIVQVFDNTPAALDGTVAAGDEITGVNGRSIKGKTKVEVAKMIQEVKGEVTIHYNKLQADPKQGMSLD

Regarding IPLDGETEEL [MYOZ1, Q9NP98], the pKd result in the test with MPDZ_10, O75970 was “below the threshold”; in the test with HTRA1, Q92743, 3.99; with DLG2_2, Q15700 it was “below the threshold”; in the test with LIN7A, O14910, “below the threshold”; in the test with TJP1_2, Q07157, “below the threshold”; with NHERF3_4, Q5T2W1, “below the threshold”. In addition, the pKd entry with PDZRN3_1, Q9UPQ7 was “below the threshold”; in the test with DLG1_2, Q12959, “below the threshold”; with DFNB31_2, Q9P202, “below the threshold”; in the test with MAGI2_5, Q86UL8 it was “below the threshold”; with TX1BP3, O14907, “below the threshold”; with NOS1, P29475, “below the threshold”. Besides, the pKd result in the test with DLG2_3, Q15700 was “below the threshold”; with NHERF3_1, Q5T2W1, 3.48; with MAST1, Q9Y2H9 it was 4.1; in the test with PICK1, Q9NRD5 it was “below the threshold”; with DLG3_1, Q92796, “below the threshold”; in the test with MPDZ_5, O75970, “below the threshold”. Moreover, the pKd entry in the test with IL16_3, Q14005 is “below the threshold”; with ARHGAP21, Q5T5U3 it was “below the threshold”; with LRRC7, Q96NW7, “below the threshold”; with APBA2_2, Q99767, “below the threshold”; with MPDZ_12, O75970 it was “below the threshold”; in the test with PTPN3, P26045 it was 4.04.
As for DDEDRLVIEI [ZNF831, Q5JPB2], the pKd result with MPDZ_10, O75970 is “below the threshold”; with HTRA1, Q92743, 5.7; with DLG2_2, Q15700, “below the threshold”; in the test with LIN7A, O14910, “below the threshold”; in the test with TJP1_2, Q07157, “below the threshold”; in the test with NHERF3_4, Q5T2W1, “below the threshold”. Moreover, the pKd result with PDZRN3_1, Q9UPQ7 is “below the threshold”; with DLG1_2, Q12959 it was 3.56; with DFNB31_2, Q9P202 it was “below the threshold”; with MAGI2_5, Q86UL8, “below the threshold”; in the test with TX1BP3, O14907, “below the threshold”; in the test with NOS1, P29475, 3.64. For the same molecule, the pKd in the test with DLG2_3, Q15700 was 3.65; with NHERF3_1, Q5T2W1, “below the threshold”; with MAST1, Q9Y2H9 it was “below the threshold”; with PICK1, Q9NRD5, “below the threshold”; with DLG3_1, Q92796 it was “below the threshold”; with MPDZ_5, O75970 it was “below the threshold”. The pKd entry with IL16_3, Q14005 is “below the threshold”; with ARHGAP21, Q5T5U3, “below the threshold”; with LRRC7, Q96NW7, “below the threshold”; with APBA2_2, Q99767 it was “below the threshold”; with MPDZ_12, O75970 it was “below the threshold”; with PTPN3, P26045, “below the threshold”.
On to RHGSCVETSL [TMEM151B, Q8IW70], for which the pKd entry with MPDZ_10, O75970 was “below the threshold”; with HTRA1, Q92743, 3.86; in the test with DLG2_2, Q15700 it was 4.32; with LIN7A, O14910, 4.04; with TJP1_2, Q07157, “below the threshold”; with NHERF3_4, Q5T2W1, 3.95. The pKd in the test with PDZRN3_1, Q9UPQ7 is 5.2; with DLG1_2, Q12959, 4.88; with DFNB31_2, Q9P202, “below the threshold”; with MAGI2_5, Q86UL8, 4.22; with TX1BP3, O14907, 4.8; with NOS1, P29475, 3.84. The pKd is 4.19 in the test with DLG2_3, Q15700; 5.38 with NHERF3_1, Q5T2W1; 5.12 in the test with MAST1, Q9Y2H9; 4.18 with PICK1, Q9NRD5; 3.53 in the test with DLG3_1, Q92796; “below the threshold” in the test with MPDZ_5, O75970. The pKd result with IL16_3, Q14005 is “below the threshold”; with ARHGAP21, Q5T5U3, 4.17; in the test with LRRC7, Q96NW7, 4.08; in the test with APBA2_2, Q99767 it was “below the threshold”; with MPDZ_12, O75970 it was “below the threshold”; with PTPN3, P26045 it was 5.
As for QMNQTLPVQV [EPHB3, P54753], the pKd with MPDZ_10, O75970 is 3.49; with HTRA1, Q92743, 4.11; with DLG2_2, Q15700 it was “below the threshold”; in the test with LIN7A, O14910, “below the threshold”; in the test with TJP1_2, Q07157, 3.72; in the test with NHERF3_4, Q5T2W1, 3.48. Also, the pKd was 3.51 in the test with PDZRN3_1, Q9UPQ7; “below the threshold” with DLG1_2, Q12959; “below the threshold” with DFNB31_2, Q9P202; “below the threshold” with MAGI2_5, Q86UL8; “below the threshold” in the test with TX1BP3, O14907; 4.18 with NOS1, P29475. Further, the pKd entry was “below the threshold” with DLG2_3, Q15700; 3.48 in the test with NHERF3_1, Q5T2W1; 3.93 with MAST1, Q9Y2H9; 4.35 with PICK1, Q9NRD5; “below the threshold” with DLG3_1, Q92796; 3.84 with MPDZ_5, O75970. The pKd entry in the test with IL16_3, Q14005 is “below the threshold”; in the test with ARHGAP21, Q5T5U3, 4; with LRRC7, Q96NW7 it was “below the threshold”; with APBA2_2, Q99767, “below the threshold”; with MPDZ_12, O75970, 3.53; with PTPN3, P26045 it was 3.97.

As usually defined, the pKd is −log10 of the Kd, conventionally taken in molar units.
